Source: patent US20120220489A1

Experiments:
[1] = target: pErk1/2-BSA 2.7x peptide-protein conjugate (human; bovine); experiment: RPA, 8 point dilution series of the peptide standard in buffer, assay 2
[2] = target: ERK1 (p42) active (phospho), human, Active Motif 31 152 (human) (UniProt P27361); experiment: RPA, competition: +free H3 peptide 1000 nM
[3] = target: ERK1 (p44) inactive (GST tagged), human, Invitrogen PV 3312 (human) (UniProt P27361); experiment: RPA, competition: +free H3 peptide 1000 nM
[4] = target: Erk1-BSA 2.7x peptide-protein conjugate (human; bovine); experiment: RPA, competition: +free H3 peptide 1000 nM
[5] = target: Histone H3 recombinant protein, calf, Roche 11 034 758 001 (calf) (UniProt P68432); experiment: RPA, competition: +free H3 peptide 1000 nM
[6] = target: Histone H3 recombinant protein, human, Upstate 14-494 (human) (UniProt P68431); experiment: RPA, competition: +free H3 peptide 1000 nM
[7] = target: Histone H3-BSA 2.7x peptide-protein conjugate (bovine); experiment: RPA, competition: +free H3 peptide 1000 nM
[8] = target: pRb-BSA 1x peptide-protein conjugate (bovine); experiment: RPA, competition: +free H3 peptide 1000 nM
Sequence of pRb-BSA 1x peptide-protein conjugate (bovine) (P02769 25-607 limits assumed): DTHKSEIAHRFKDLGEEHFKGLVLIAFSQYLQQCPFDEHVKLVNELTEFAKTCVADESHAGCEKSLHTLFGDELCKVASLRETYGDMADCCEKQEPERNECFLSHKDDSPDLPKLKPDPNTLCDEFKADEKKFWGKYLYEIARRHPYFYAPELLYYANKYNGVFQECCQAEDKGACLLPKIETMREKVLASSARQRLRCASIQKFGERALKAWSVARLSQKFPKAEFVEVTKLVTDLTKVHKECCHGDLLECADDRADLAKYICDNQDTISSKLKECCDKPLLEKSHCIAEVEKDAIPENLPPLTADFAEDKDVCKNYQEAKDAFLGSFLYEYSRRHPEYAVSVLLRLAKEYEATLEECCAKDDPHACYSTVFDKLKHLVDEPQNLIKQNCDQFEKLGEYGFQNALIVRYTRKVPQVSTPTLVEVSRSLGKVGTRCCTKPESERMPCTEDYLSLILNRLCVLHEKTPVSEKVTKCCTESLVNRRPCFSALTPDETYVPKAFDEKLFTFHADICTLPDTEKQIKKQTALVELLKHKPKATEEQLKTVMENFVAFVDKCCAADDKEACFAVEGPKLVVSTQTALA

Sequence of Erk1-BSA 2.7x peptide-protein conjugate (human; bovine) (peptide, as listed by the source limits assumed, chain 1 of 2): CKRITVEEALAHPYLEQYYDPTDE
Sequence of Erk1-BSA 2.7x peptide-protein conjugate (human; bovine) (P02769 25-607 limits assumed, chain 2 of 2): as the sequence (P02769 25-607 limits assumed) above
Sequence of Histone H3-BSA 2.7x peptide-protein conjugate (bovine) (P02769 25-607 limits assumed): as above
Sequence of pErk1/2-BSA 2.7x peptide-protein conjugate (human; bovine) (P02769 25-607 limits assumed): as above

p44/42 MAPK (Erk1/2) antibody, Biosource 44-654G
mean signal (standard curve) [1]: 0.008 RFI

Histone H3 antibody, Abcam ab1791
maximum standard curve signal [2]: < 0.01 RFI
maximum standard curve signal [3]: 0.01 RFI
maximum standard curve signal [4]: < 0.01 RFI
maximum standard curve signal [5]: 0.04 RFI
maximum standard curve signal [6]: 1.13 RFI
maximum standard curve signal [7]: 1.41 RFI
maximum standard curve signal [8]: < 0.01 RFI
